{"source": "patent US5543392A", "about": "“Digestive tract cell activating agent of EGF and lactoferrin” (Morinaga Milk Industry Co., Ltd., priority 1992, dated 1996)", "key": {"[1]": {"tested_on": "IEC18 cells", "experiment": "Test 2: effect of simultaneous use of Lf or Lf-Hy and EGF on DNA synthesis (3H-thymidine incorporation)", "format": "cell-based, rat", "settings": "single use of bLf, various concentrations"}, "[2]": {"tested_on": "IEC18 cells", "experiment": "Test 3: proliferation of small intestine epithelial cells (cell count by hemocytometer)", "format": "cell-based, rat", "settings": "single addition of 50 μg/ml; sixth and tenth days of culture; compared with control group and EGF single group", "description": "ICE18 cells (the same ones as in the Test 1) were inoculated onto a 24-well culture plate by 5,000 cells per well, and were cultured for ten days with 1% FBS DMEM (0.5 ml) containing the following test subjects. During this test period, the medium was replaced on the third and the sixth days, and the number of cells was measured on the third, the sixth and the tenth days. The number of cells was counted by a hemocytometer after treating the cells with 0.25% trypsin solution and suspending them in the solution.\nThe test subjects included a sample added with nothing, a sample added with 10 ng/ml EGF, a sample added with 50 μg/ml bLf or bLf-Hy, and a sample added with 10 ng/ml EGF and 50 μg/ml bLf or bLf-Hy."}}, "data": [{"molecule": "bLf: bovine lactoferrin (manufactured by Yukijirushi Nyugyo Company) (protein, UniProt P24627 20-708, looked up) Lactotransferrin: APRKNVRWCTISQPEWFKCRRWQWRMKKLGAPSITCVRRAFALECIRAIAEKKADAVTLDGGMVFEAGRDPYKLRPVAAEIYGTKESPQTHYYAVAVVKKGSNFQLDQLQGRKSCHTGLGRSAGWIIPMGILRPYLSWTESLEPLQGAVAKFFSASCVPCIDRQAYPNLCQLCKGEGENQCACSSREPYFGYSGAFKCLQDGAGDVAFVKETTVFENLPEKADRDQYELLCLNNSRAPVDAFKECHLAQVPSHAVVARSVDGKEDLIWKLLSKAQEKFGKNKSRSFQLFGSPPGQRDLLFKDSALGFLRIPSKVDSALYLGSRYLTTLKNLRETAEEVKARYTRVVWCAVGPEEQKKCQQWSQQSGQNVTCATASTTDDCIVLVLKGEADALNLDGGYIYTAGKCGLVPVLAENRKSSKHSSLDCVLRPTEGYLAVAVVKKANEGLTWNSLKDKKSCHTAVDRTAGWNIPMGLIVNQTGSCAFDEFFSQSCAPGADPKSRLCALCAGDDQGLDKCVPNSKEKYYGYTGAFRCLAEDVGDVAFVKNDTVWENTNGESTADWAKNLNREDFRLLCLDGTRKPVTEAQSCHLAVAPNHAVVSRSDRAAHVKQVLLHQQALFGKNGKNCPDKFCLFKSETKNLLFNDNTECLAKLGGRPTYEEYLGTEYVTAIANLKKCSTSPLLEACAFLTR", "values": [{"measurement": "quantity of incorporated 3H-thymidine into DNA (FIG. 1)", "setting": "[1]", "value": "no effect"}, {"measurement": "number of cells (FIGS. 3 and 4)", "setting": "[2]", "value": "significantly increased"}]}]}
